Key:
[1] = target: T1, Anti-CD28 Fab (SEQ ID NOs: 202, 203); assay: phage ELISA, Fab on plate;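 note: crude clonal phage supernatants added to wells pretreated with blocking buffer with or without CD28 antigen, then bound phage read out via HRP-linked anti-M13 antibody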
T1 construct: biotinylated and captured on neutravidin coated plates in the phage ELISA
T1 sequence (VH, as listed by the source, chain 1 of 2): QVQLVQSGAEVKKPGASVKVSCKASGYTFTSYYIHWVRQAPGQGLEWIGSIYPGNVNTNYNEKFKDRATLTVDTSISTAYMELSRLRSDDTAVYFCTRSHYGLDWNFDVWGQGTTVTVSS
T1 sequence (VL, as listed by the source, chain 2 of 2): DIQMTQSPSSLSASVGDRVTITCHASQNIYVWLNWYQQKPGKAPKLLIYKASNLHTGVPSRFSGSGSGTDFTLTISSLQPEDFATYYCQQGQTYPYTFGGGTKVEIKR
Method: (§1) After panning, phage infected bacteria were plated out and colonies picked into 96 well blocks. Clonal phage was then amplified and separated from bacterial cells via centrifugation.
(§2) Clonal phage were harvested as crude supernatants and screened via standard ELISAs. […] Prior to the addition of clonal phage, wells were incubated with blocking buffer and CD28 antigen or blocking buffer alone. Without washing or aspirating, clonal phage supernatants were then added to the wells and incubated for a short time. Wells were then washed followed by detection of bound phage using a horse radish conjugated anti-M13 antibody. Clonal phage of interest were then sent for sequence analysis.

[2] = target: T1, Anti-CD28 Fab (SEQ ID NOs: 202, 203); assay: phage ELISA, Fab on plate, CD28 antigen as competitor
Method: as §1, §2

[3] = target: Anti-CD28 Fab (SEQ ID NOs: 202, 203); assay: phage binding ELISA on captured Fab;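 note: clonal phage supernatants added briefly to wells pre-incubated with CD28 antigen or with blocking buffer only, then washed, bound phage read by ELISA using HRP-coupled anti-M13 antibody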
Target sequence in this assay (VH, as listed by the source, chain 1 of 2): as the sequence (VH, as listed by the source, chain 1 of 2) above
Target sequence in this assay (VL, as listed by the source, chain 2 of 2): as the sequence (VL, as listed by the source, chain 2 of 2) above
Method: Clonal phage were harvested as crude supernatants and screened via standard ELISAs. […] Prior to the addition of clonal phage, wells were incubated with blocking buffer and CD28 antigen or blocking buffer alone. Without washing or aspirating, clonal phage supernatants were then added to the wells and incubated for a short time. Wells were then washed followed by detection of bound phage using a horse radish conjugated anti-M13 antibody.

Binder	Anti-CD28 Fab (SEQ ID NOs: 202, 203) signal [1]	Anti-CD28 Fab signal in the presence of CD28 [2]	Anti-CD28 Fab (SEQ ID NOs: 202, 203) signal [3]
YCEGHSAEYIAKCL [Phage-614]	1.41	0.09	–
YCDGHSAEYIAKCL [Phage-662]	1.31	0.05	–
YCEGHSAEYIGKCL [Phage-738]	1.08	0.07	–
YCEGHSQLYMAKCL [Phage-630]	1.37	0.07	–
YCEGHISEYMGKCL [Phage-808]	–	–	0.88
YCDGHTEAYMSKCL [Phage-807]	–	–	0.88
YCLGHSWPYIHKCY [Phage-602]	1.43	0.07	–
YCEGHLPAYMGKCI [Phage-632]	1.37	0.09	–
YCDGHTPEYMWKCL [Phage-604]	1.43	0.06	–
YCDGHTKEYMWKCL [Phage-736]	1.1	0.06	–
YCEGHSQQYMQKCL [Phage-605]	1.42	0.08	–
YCEGHSYQYMQKCL [Phage-715]	1.16	0.06	–
YCEGHSQQYMWKCL [Phage-711]	1.17	0.05	–
YCEGHSQTYMWKCL [Phage-709]	1.17	0.08	–
YCEGHDWMYMEKCL [Phage-801]	–	–	0.91
YCEGHLDEYLQKCL [Phage-626]	1.38	0.07	–
YCNGHLPEYMSKCI [Phage-618]	1.4	0.07	–
YCDGHLPEYIAKCQ [Phage-600]	1.43	0.07	–
YCDGHSETYLWKCL [Phage-631]	1.37	0.1	–
YCDGHTAQYMWKCL [Phage-812]	–	–	0.87
YCDGLFQLYMMKCL [Phage-624]	1.38	0.07	–
YCVGHLPQYMQKCL [Phage-599]	1.43	0.06	–
YCQGHSPNYITKCF [Phage-608]	1.41	0.06	–
YCAGHTSEYMSKCL [Phage-634]	1.36	0.07	–
YCDGHVLMYLAKCL [Phage-803]	–	–	0.9
YCEGHHPWYVQKCL [Phage-621]	1.39	0.07	–
YCEGHSQEYKAKCF [Phage-802]	–	–	0.9

Binder	Anti-CD28 Fab (SEQ ID NOs: 202, 203) signal [1]	Anti-CD28 Fab signal in the presence of CD28 [2]	Anti-CD28 Fab (SEQ ID NOs: 202, 203) signal [3]
YCDGHDARYMEKCL [Phage-616]	1.4	0.06	–
YCDGHLDEYMLKCL [Phage-603]	1.43	0.06	–
YCDGHLLMYMEKCL [Phage-800]	–	–	0.91
YCDGHAPEYIQKCL [Phage-625]	1.38	0.06	–
YCDGHSPEHMGKCL [Phage-615]	1.4	0.09	–
YCAGHSAEYMSKCL [Phage-612]	1.41	0.07	–
YCAGHAEEYLEKCL [Phage-610]	1.41	0.15	–
YCDGHSPEYMQKCL [Phage-617]	1.4	0.53	–
YCDGHLQEYMQKCL [Phage-627]	1.38	0.06	–
YCDGHSHEYMQKCL [Phage-611]	1.41	0.06	–
YCDGHLPEYMQKCL [Phage-643]	1.35	0.08	–
YCDGHSPAFIQKCL [Phage-606]	1.42	0.08	–
YCDGHQPQYMSKCL [Phage-628]	1.38	0.09	–
YCDGHSLEYIEKCL [Phage-601]	1.43	0.06	–
YCSGHLPEYMDKCL [Phage-619]	1.39	0.07	–
YCDGHNWEYMEKCL [Phage-622]	–	0.05	–
YCEGHLSEYIGKCL [Phage-811]	–	–	0.87
YCDGHAPEYLGKCL [Phage-609]	1.41	0.06	–
YCDGHLMEYKAKCL [Phage-613]	1.41	0.06	–
YCDGHLSEYIGKCL [Phage-629]	1.37	0.06	–
YCEGHLAAYMYKCL [Phage-805]	–	–	0.89
YCDGHSLEYMLKCL [Phage-620]	1.39	0.07	–
YCDGHAEQYMSKCL [Phage-623]	1.38	0.07	–
YCDGHIAEYRSKCL [Phage-810]	–	–	0.87
YCDGHSLEYIDKCM [Phage-607]	1.42	0.09	–
YCDGHSTLYMQKCL [Phage-806]	–	–	0.88
YCDGHFTWYMAKCL [Phage-809]	–	–	0.87

From US20260274955A1 (JANUX THERAPEUTICS, published 2026)
